Reference: PMC12376620, “A Novel OsMPK6‐OsMADS47‐PPKL1/3 Module Controls Grain Shape and Yield in Rice”

B1: GS3-P3 (dsDNA)
DNA 1: GCCACCCTCCCTACGACGTAGCCAGATATGGGTGGAGAGGTAAGCGCCGCCGCCGCTGC
DNA 2: GCAGCGGCGGCGGCGCTTACCTCTCCACCCATATCTGGCTACGTCGTAGGGAGGGTGGC
B2: GS3-P5 (dsDNA)
DNA 1: CTTTTCTAAACGATATTCTTCATGAACCAAAGGAGGGAAGCTCATTCCGAAAATTTTTCC
DNA 2: GGAAAAATTTTCGGAATGAGCTTCCCTCCTTTGGTTCATGAAGAATATCGTTTAGAAAAG
B3: GW8-P3 (dsDNA)
DNA 1: CTACTTTCCTTATTCCACTAGAAATCATATATACCTTTCTCACTCTACATAATC
DNA 2: GATTATGTAGAGTGAGAAAGGTATATATGATTTCTAGTGGAATAAGGAAAGTAG
B4: GS3-P1 (dsDNA)
DNA 1: GCTGCACAACCCGCGATGCCGTCGGCCGGATTTGGGAGGTGGAGCGTCGCCGCCCTCC
DNA 2: GGAGGGCGGCGACGCTCCACCTCCCAAATCCGGCCGACGGCATCGCGGGTTGTGCAGC
B5: GS3-P4 (dsDNA)
DNA 1: CCACCGTCCCCCCTTCCCCCTCCAACCAGATCTGGGAGGAAGGGAGGGAGGGAGGGGAG
DNA 2: CTCCCCTCCCTCCCTCCCTTCCTCCCAGATCTGGTTGGAGGGGGAAGGGGGGACGGTGG
B6: GW8-P2 (dsDNA)
DNA 1: GTAACTGACTACCCCCAGTTCCTGCCCTCTTGGGCCTTGGTATTGTTGCTCCAAG
DNA 2: CTTGGAGCAACAATACCAAGGCCCAAGAGGGCAGGAACTGGGGGTAGTCAGTTAC
B7: GW8-P1 (dsDNA)
DNA 1: CTTATAGTCCAACAATTTGAGAGCAATTAATGGTCAAAAATTAAATGAAAAATAGAAATTC
DNA 2: GAATTTCTATTTTTCATTTAATTTTTGACCATTAATTGCTCTCAAATTGTTGGACTATAAG
B8: GS3-P2 (dsDNA)
DNA 1: CTCTCCCTTCCATCATTACTTGCCCAAAAACGGCAATCCCCTCCCCTCCATCTCCATGTG
DNA 2: CACATGGAGATGGAGGGGAGGGGATTGCCGTTTTTGGGCAAGTAATGATGGAAGGGAGAG

molecular target: MBP-OsMADS47 (Oryza sativa (cv. Nipponbare, NIP?), UniProt Q5K4R0 1-250); experiment: EMSA; EMSA buffer not stated (performed as described previously, ref 61); unlabeled competitors at 10x, 100x, 1000x; settings: protein: recombinant; tags: MBP (N-terminal, pMAL); chain copies: 2; label: biotin 3'-end; blunt
Sequence (Q5K4R0 whole entry): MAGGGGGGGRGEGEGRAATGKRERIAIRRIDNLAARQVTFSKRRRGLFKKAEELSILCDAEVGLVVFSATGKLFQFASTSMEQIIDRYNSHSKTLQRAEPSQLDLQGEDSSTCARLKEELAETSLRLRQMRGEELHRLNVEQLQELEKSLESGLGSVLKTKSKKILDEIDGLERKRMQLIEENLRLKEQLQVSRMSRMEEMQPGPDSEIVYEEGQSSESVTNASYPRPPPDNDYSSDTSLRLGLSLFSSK

Binding result, binds:
B1
B2
B3
B4
B5
B6
B7
B8
